This is an account of results in patent publication US20240174712A1, “COMPOSITIONS AND METHODS FOR PURIFYING ALPHA-1 ANTITRYPSIN USING PEPTIDE LIGANDS” (North Carolina State University, priority 2022, published 2024).

The target in one experiment is T1, human AAT (Homo sapiens, UniProt P01009).
T1 construct: purchased CSL Behring (King of Prussia, PA, USA)
The experiment is described as follows: Static binding capacity and affinity of peptide-Toyopearl resins (AAT adsorption isotherms, Langmuir fit). As to conditions: pure AAT in PBS at pH 7.4; Langmuir isotherm fit. As to the method: Static binding capacity and affinity of peptide-Toyopearl resins. […] Aliquots of 50 μL of peptide-Toyopearl resin were transferred in a tube, swollen in 20% v/v aqueous methanol, washed in MilliQ water, and finally equilibrated in PBS at pH 7.4. The resin aliquots were individually incubated with 0.5 mL of a solution of AAT at different concentrations (0.1, 0.25, 0.5, 0.75, 1.0, 1.5, 2.0, and 5.0 mg/mL) for 1.5 hrs at room temperature under gentle rotation. After incubation, the resin aliquots were centrifuged and the supernatants collected as unbound (UB) fraction; the resins were also washed with 0.5 mL of PBS for 30 min, and the supernatants were combined with the corresponding UB fractions. These were finally analyzed by Micro BCA Protein Assay kit to determine the concentration C* of unbound AAT in solution at the equilibrium with the resin, from which the amount q of bound AAT per volume of resin was determined by mass balance. The values of q vs. C* were plotted and fit using a Langmuir isotherm (Equation 1) to determine the values of maximum binding capacity (Qmax) and affinity dissociation constant (KD)).
Evaluation of AAT-binding peptides via in vitro and in silico AAT binding studies. […] Toyopearl resin was selected for ligand conjunction owing to its high chemical and mechanical stability as well as low non-specific protein adsorption, which make it an ideal substrate for direct peptide conjugation and protein chromatography.

Experiment [1] has as its target T2, Human Alpha-1 antitrypsin (AAT) (human, UniProt P01009 25-418).
T2 construct: Pure AAT in buffer, as used in the isotherm and breakthrough studies; also called α-1 antitrypsin; human AAT
Kind of experiment: static adsorption isotherm, pure AAT in PBS pH 7.4, Langmuir fit. Here is the method: Static binding capacity and affinity of peptide-Toyopearl resins. The selected sequences were synthesized on Toyopearl AF-Amino 650 M resin as described herein and evaluated via isotherm binding studies of AAT in non-competitive mode (e.g., pure AAT in PBS at pH 7.4) as described in prior work. Aliquots of 50 μL of peptide-Toyopearl resin were transferred in a tube, swollen in 20% v/v aqueous methanol, washed in MilliQ water, and finally equilibrated in PBS at pH 7.4. The resin aliquots were individually incubated with 0.5 mL of a solution of AAT at different concentrations (0.1, 0.25, 0.5, 0.75, 1.0, 1.5, 2.0, and 5.0 mg/mL) for 1.5 hrs at room temperature under gentle rotation. After incubation, the resin aliquots were centrifuged and the supernatants collected as unbound (UB) fraction; the resins were also washed with 0.5 mL of PBS for 30 min, and the supernatants were combined with the corresponding UB fractions. These were finally analyzed by Micro BCA Protein Assay kit to determine the concentration C* of unbound AAT in solution at the equilibrium with the resin, from which the amount q of bound AAT per volume of resin was determined by mass balance. The values of q vs. C* were plotted and fit using a Langmuir isotherm (Equation 1) to determine the values of maximum binding capacity (Qₘₐₓ) and affinity dissociation constant (KD)).

Experiment [2] deals with T2, Human Alpha-1 antitrypsin (AAT). The experiment is described as follows: dynamic binding capacity at 10% breakthrough, PBS pH 7.4, residence time 2 min. Here is the method: (§1) Dynamic binding capacity of peptide Toyopearl resins. The dynamic binding capacity at 10% breakthrough (DBC_{10%}, mg of AAT per mL resin) of the selected peptide-Toyopearl resins and the control AAT Select resin was measured. A volume of 0.1 mL of resin was wet packed in a Vici Jour PEEK column, washed with 10 column volumes (CVs) of 20% v/v ethanol, deionized water (3 CVs), and finally equilibrated with 10 CVs of binding buffer. The binding buffers used in this study were (i) 0.15M NaCl in 20 mM Bis-Tris HCl buffer at pH 6.0, (ii) PBS buffer at pH 7.4, and (iii and iv) 0.15M NaCl in 50 mM Tris HCl buffer at pH 7.4 or pH 8.0. A volume of 2 mL of solution of human AAT at 1 mg/mL in PBS buffer was continuously loaded on the column at the flow rate of either 0.05 mL/min (residence time, RT: 2 min) or 0.02 mL/min (RT: 5 min). After loading, the resin was washed with 10 CVs of binding buffer at the flow rate of 0.1 mL/min. AAT elution was then performed with 20 CVs of PBS in 2 M MgCl₂ at pH 7.4 at the flow rate of 0.2 mL/min. The resin was regenerated with 10 CVs of glycine buffer at pH 2.0 at the flow rate of 0.2 mL/min. The effluents were continuously monitored by UV spectrometry at 280 nm and the resulting chromatograms were utilized to calculate the DBC_{10%} of AAT.
(§2) Evaluation of AAT-binding peptides via dynamic binding measurements. Following the equilibrium binding studies, the selected peptide-Toyopearl resins were evaluated under dynamic conditions to evaluate the interplay of kinetic factors—chiefly, the AAT transport within the chromatographic particles and the formation of AAT:peptide complexes—on the resultant binding capacity. To that end, the dynamic binding capacity at 10% breakthrough (DBC_{10%}, mg of AAT per mL of resin) of the peptide-Toyopearl resins was measured at two values of residence time (RT), namely 2 and 5 min, and four different buffer compositions, namely 20 mM Bis-Tris HCl buffer (0.15M NaCl) at pH 6.0, PBS buffer at pH 7.4, and 50 mM Tris HCl buffer (0.15M NaCl) at pH 7.4 and 8.0, and compared with that of AAT Select from Cytiva (FIG. 4; the corresponding breakthrough curves are reported in FIG. 9).

For experiment [3] the target is unchanged. Kind of experiment: dynamic binding capacity at 10% breakthrough, PBS pH 7.4, residence time 5 min. Here is the method: as §1, §2
For experiment [4] the target is unchanged. Kind of experiment: dynamic binding capacity at 10% breakthrough, Tris buffer pH 7.4, residence time 2 or 5 min.

No end group written: not given here.

T2 sequence (P01009 25-418 limits assumed): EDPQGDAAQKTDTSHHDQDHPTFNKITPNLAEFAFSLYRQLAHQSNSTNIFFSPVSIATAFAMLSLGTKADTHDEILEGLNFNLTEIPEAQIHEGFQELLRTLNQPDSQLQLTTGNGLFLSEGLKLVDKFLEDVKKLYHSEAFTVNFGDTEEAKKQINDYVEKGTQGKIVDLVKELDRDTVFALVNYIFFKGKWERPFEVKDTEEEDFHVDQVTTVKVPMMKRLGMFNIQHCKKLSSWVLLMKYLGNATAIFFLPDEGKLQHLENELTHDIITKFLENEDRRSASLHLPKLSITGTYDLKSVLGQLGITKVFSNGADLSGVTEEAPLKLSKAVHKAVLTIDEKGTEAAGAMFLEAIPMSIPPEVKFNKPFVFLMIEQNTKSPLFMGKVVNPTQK
T1 sequence (P01009 25-418): as the sequence (P01009 25-418 limits assumed) above

In the case of “NHNKIHG-Toyopearl: peptide ligand NHNKIHG conjugated on Toyopearl AF-Amino-650M resin (NHNKIHG-{Toyopearl AF‑Amino‑650M resin})”, in the experiment with human AAT, the “Qmax (mgAAT per mLR)” value was 6.3 mgAAT per mLR.

Alpha-1 Antitrypsin Select resin returned a Kd in experiment [1] of 510 nM. Also, the Qmax (mgAAT per mLR) in experiment [1] was 13.5. Moreover, the DBC10% in experiment [2] came to 12.3 mg/mL; in experiment [3], 12.8 mg/mL; in experiment [4], 12 mg/mL.

As for “SHWHWAG-Toyopearl: peptide ligand SHWHWAG conjugated on Toyopearl AF-Amino-650M resin (SHWHWAG-{Toyopearl AF‑Amino‑650M resin})”, the “Qmax (mgAAT per mLR)” value in the experiment with human AAT is on record as 7.0 mgAAT per mLR.

As for “KHAWIFG-Toyopearl: peptide ligand KHAWIFG conjugated on Toyopearl AF-Amino-650M resin (KHAWIFG-{Toyopearl AF‑Amino‑650M resin})”, in the experiment with human AAT, the “Qmax (mgAAT per mLR)” value is given as 7.2 mgAAT per mLR.

Consider “KFHAWNG-Toyopearl: peptide ligand KFHAWNG conjugated on Toyopearl AF-Amino-650M resin (KFHAWNG-{Toyopearl AF‑Amino‑650M resin})”, for which the “Qmax (mgAAT per mLR)” value in the experiment with human AAT is 8.9 mgAAT per mLR.

KHAWIFG-{Toyopearl AF‑Amino‑650M resin} (not fully specified; printed as KHAWIFG-Toyopearl) [KHAWIFG-Toyopearl]: in experiment [1], the Kd came out at 1420 nM and the Qmax is 7.2 mgAAT per mLR.

In the case of KAWFKHWNG-{Toyopearl AF‑Amino‑650M resin} (not fully specified; printed as KAWFKHWNG-Toyopearl) [KAWFKHWNG-Toyopearl], in experiment [1], the Kd came out at 870 nM and the Qmax was found to be 10.2 mgAAT per mLR.

On to ANAKIKKKG-{Toyopearl AF‑Amino‑650M resin} (not fully specified; printed as ANAKIKKKG-Toyopearl) [ANAKIKKKG-Toyopearl], for which, in experiment [1], the Kd turned out to be 6700 nM and the Qmax was found to be 3.51 mgAAT per mLR.

In experiment [1], KHSKAIAAG-{Toyopearl AF‑Amino‑650M resin} (not fully specified; printed as KHSKAIAAG-Toyopearl) [KHSKAIAAG-Toyopearl] registered a Kd of 3620 nM and a Qmax of 9.1 mgAAT per mLR.

Molecule KWKHSHKWG-{Toyopearl AF‑Amino‑650M resin} (not fully specified; printed as KWKHSHKWG-Toyopearl) [KWKHSHKWG-Toyopearl] registered a Kd in experiment [1] of 630 nM. In experiment [1], this molecule returned a Qmax of 15.8 mgAAT per mLR. Further, the DBC10% in experiment [2] stood at 8.9 mg/mL; in experiment [3] it was 11.6 mg/mL.

For the molecule FEKWAKAHG-{Toyopearl AF‑Amino‑650M resin} (not fully specified; printed as FEKWAKAHG-Toyopearl) [FEKWAKAHG-Toyopearl], in experiment [1], the Kd amounted to 4670 nM and the Qmax stood at 5.1 mgAAT per mLR.

In experiment [1], SHWHWAG-{Toyopearl AF‑Amino‑650M resin} (not fully specified; printed as SHWHWAG-Toyopearl) [SHWHWAG-Toyopearl] registered a Kd of 3280 nM and a Qmax of 7 mgAAT per mLR.

Turning to NHNKIHG-{Toyopearl AF‑Amino‑650M resin} [NHNKIHG-Toyopearl], in experiment [1], the affinity, expressed as Kd, was 2320 nM and the Qmax came to 6.3 mgAAT per mLR.

In experiment [1], KFHAWNG-{Toyopearl AF‑Amino‑650M resin} (not fully specified; printed as KFHAWNG-Toyopearl) [KFHAWNG-Toyopearl] returned a Kd of 2480 nM and a Qmax of 8.9 mgAAT per mLR.

WHAKKSKFG-{Toyopearl AF‑Amino‑650M resin} (not fully specified; printed as WHAKKSKFG-Toyopearl) [WHAKKSKFG-Toyopearl]: in experiment [1], the Kd worked out at 2090 nM. Moreover, in experiment [1], the Qmax stood at 12.9 mgAAT per mLR. In addition, the DBC10% in experiment [2] amounted to 10.3 mg/mL; in experiment [3], 12.7 mg/mL.

In experiment [1], WHAKKSHFG-{Toyopearl AF‑Amino‑650M resin} (not fully specified; printed as WHAKKSHFG-Toyopearl) [WHAKKSHFG-Toyopearl] showed a Kd of 950 nM and a Qmax of 16.3 mgAAT per mLR. This molecule returned a DBC10% in experiment [2] of 9.3 mg/mL. The molecule further yielded a DBC10% in experiment [3] of 12.5 mg/mL.

AAHFHKG-{Toyopearl AF‑Amino‑650M resin} (not fully specified; printed as AAHFHKG-Toyopearl) [AAHFHKG-Toyopearl]: in experiment [1], the Kd is 4710 nM and the Qmax was 8.7 mgAAT per mLR.

As for FSHHSWKFG-{Toyopearl AF‑Amino‑650M resin} (not fully specified; printed as FSHHSWKFG-Toyopearl) [FSHHSWKFG-Toyopearl], in experiment [1], the Kd stood at 3630 nM and the Qmax was 9.4 mgAAT per mLR.

In general, Kd refers to the concentration at which binding is half-saturated.
